Measurements published in paper PMC6615639, “A broadly neutralizing germline-like human monoclonal antibody against dengue virus envelope domain III” (PLoS Pathogens, 2019).

Experiments:
[1] = molecular target: T1, DENV-3 envelope protein domain III (DIII), fused with IgG1 Fc and a C-terminal Avi-tag (Dengue virus type 3, strain ; …, UniProt Q99D35); assay: cell-based or functional assay
[2] = molecular target: T2, DENV-1 envelope protein domain III (DIII), fused with IgG1 Fc and a C-terminal Avi-tag (Dengue virus type 1, strain ; …, UniProt B6DXD2); assay: cell-based or functional assay
[3] = molecular target: T3, DENV-4 envelope protein domain III (DIII), fused with IgG1 Fc and a C-terminal Avi-tag (Dengue virus type 4, strain ; …, UniProt P09866); assay: cell-based or functional assay
[4] = molecular target: T4, DENV-2 envelope protein domain III (DIII), fused with IgG1 Fc and a C-terminal Avi-tag (Dengue virus type 2, strain ; …); assay: cell-based or functional assay
T4 chain: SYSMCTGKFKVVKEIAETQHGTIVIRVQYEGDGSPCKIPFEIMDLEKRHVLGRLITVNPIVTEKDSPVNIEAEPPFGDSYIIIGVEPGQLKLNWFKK

[5] = molecular target: T1, DENV-3 envelope protein domain III …; assay: SPR; settings: both partners purified
[6] = molecular target: T2, DENV-1 envelope protein domain III …; assay: SPR; settings: both partners purified
[7] = molecular target: T3, DENV-4 envelope protein domain III …; assay: SPR; settings: both partners purified
[8] = molecular target: T4, DENV-2 envelope protein domain III …; assay: SPR; settings: both partners purified

B1: m366.6 scFv-Fc (scFv, V domains shown)
VH: QLQLQESGGGLVQPGGSLRLSCAASGFTFSSHSMNWIRQAPGKRLEWVSSISSSSSYIYYADSVRGRFTISRDNAKNSLYLQMDSLRAEDTAVYYCARYMAGIWTFDIWGQGTMVTVSS
VL: SYELTQPPSVSVAPGKTASISCGGDNIGRKSVHWFQQKPGQAPVLVLYDDSDRPSGIPARFSGSNSGNTATLTISGVEAGDEADYYCQVWARSSDLPNWVFGGGTKLTVL
notes: also called mAb m366.6
**Q.** For B1, which other [1] is on record?
**A.** 0.85 µg/mL

**Q.** And the other [2]?
**A.** 22 µg/mL

**Q.** And the other [3]?
**A.** 0.36 µg/mL

**Q.** And the other [4]?
**A.** 2.4 µg/mL

**Q.** And the Kd [5]?
**A.** 0.27 nM

**Q.** And the koff [5]?
**A.** 0.00018 s⁻¹

**Q.** What about the kon [5] of the same binder?
**A.** 660000 M⁻¹ s⁻¹

**Q.** What about the Kd [6] of the same binder?
**A.** 0.78 nM

**Q.** What about the koff [6] of the same binder?
**A.** 0.00025 s⁻¹

**Q.** What about the kon [6] of the same binder?
**A.** 320000 M⁻¹ s⁻¹

**Q.** And the Kd [7]?
**A.** 1.9 nM

**Q.** And the koff [7]?
**A.** 0.00062 s⁻¹

**Q.** And the kon [7]?
**A.** 330000 M⁻¹ s⁻¹

**Q.** And the Kd [8]?
**A.** 0.29 nM

**Q.** What about the koff [8] of the same binder?
**A.** 0.00025 s⁻¹

**Q.** What about the kon [8] of the same binder?
**A.** 960000 M⁻¹ s⁻¹
